Data as given in patent US20230165938A1.

B1: human rhodopsin kinase (G protein receptor kinase 1) (enzyme, UniProt Q15835 1-560, looked up)
chain: MDFGSLETVVANSAFIAARGSFDGSSSQPSRDKKYLAKLKLPPLSKCESLRDSLSLEFESVCLEQPIGKKLFQQFLQSAEKHLPALELWKDIEDYDTADNDLQPQKAQTILAQYLDPQAKLFCSFLDEGIVAKFKEGPVEIQDGLFQPLLQATLAHLGQAPFQEYLGSLYFLRFLQWKWLEAQPMGEDWFLDFRVLGKGGFGEVSACQMKATGKLYACKKLNKKRLKKRKGYQGAMVEKKILMKVHSRFIVSLAYAFETKADLCLVMTIMNGGDIRYHIYNVNEENPGFPEPRALFYTAQIICGLEHLHQRRIVYRDLKPENVLLDNDGNVRISDLGLAVELLDGQSKTKGYAGTPGFMAPELLQGEEYDFSVDYFALGVTLYEMIAARGPFRARGEKVENKELKHRIISEPVKYPDKFSQASKDFCEALLEKDPEKRLGFRDETCDKLRAHPLFKDLNWRQLEAGMLMPPFIPDSKTVYAKDIQDVGAFSTVKGVAFDKTDTEFFQEFATGNCPIPWQEEMIETGIFGELNVWRSDGQMPDDMKGISGGSSSSSKSGMC

Tests used:
Assay in all cases: cell-based or functional assay
[1] = target: wildtype human rod opsin (human) (UniProt P08100)
[2] = target: wildtype human rod opsin (human) (UniProt P08100); remark: listed apart in the source
[3] = target: phosphonull Rod opsin 6A mutant (human) (UniProt P08100)

| Molecule | Response decay (best fit Toff) of the light-driven BRET G protein (Go) activation response in Hek293T cells, arrestin co-expressed without GRK1, relative to RodWT alone (% of RodWT level) [1] | Response decay rate of the BRET G protein activation light response, arrestin and GRK1 both co-expressed with RodWT, relative to RodWT alone [1] [x faster] | Toff of the BRET G protein activation light response, arrestin and GRK1 both co-expressed with RodWT (RodWT alone 166.16) [1] [s] | Response amplitude (A) of the BRET G protein activation light response, GRK1 (or GRK1+Arr) co-expressed with RodWT (% of RodWT amplitude) [2] | Response amplitude (A) of the BRET G protein activation light response, GRK1 only co-expressed with Rod6A (scaling factor A) [3] |
| --- | --- | --- | --- | --- | --- |
| wildtype human visual arrestin (from UniProt P10523 1-405) | 90 | 2.5 | 65.6 |  |  |
| B1 |  |  |  | 25 | 0.42 |
